Laboratory results taken from the DeepSol protein solubility set.

test: soluble on expression in E. coli; label from the status in PepcDB or PDB records

Soluble on expression in E. coli, soluble:
MSDTANTAVEVDEQVIEKKLDDLSIGKKRSPSKDDTSKHRLPAAERIRIWEEEQKAKIVLTAGLQGKVKWYSVLRRYGFISRSDGEKDVFVHQTAISKSDTEKFYLRTLADEEEVLFDLVDGKNGPEAANVTGPAGVNVSGSKYRHQLLSRFRKNRKPKIVVGEDFDSKETEKLVEAPAVAMEKKKQRKQRKNKNRKQKDQKGAGDAADSSATTESLGTSSETASPDSKSCTKIISEEAGLSKIDRCDSALDDAGLGAQLIDAQI
MSEESQAFQRQLTALIGYDVTDVSNVHDDELEFTRRGLVTPRMAEVASRDPKLYAMHPWVTSKPLPEYLWKKIANNCIFIVIHRSTTSQTIKVSPDDTPGAILQSFFTKMAKKKSLMDIPESQSEQDFVLRVCGRDEYLVGETPIKNFQWVRHCLKNGEEIHVVLDTPPDPALDEVRKEEWPLVDDCTGVTGYHEQLTIHGKDHESVFTVSLWDCDRKFRVKIRGIDIPVLPRNTDLTVFVEANIQHGQQVLCQRRTSPKPFTEEVLWNVWLEFSIKIKDLPKGALLNLQIYCGKAPALSSKASAESPSSESKGKVQLLYYVNLLLIDHRFLLRRGEYVLHMWQISGKGEDQGSFNADKLTSATNPDKENSMSISILLDNYCHPIALPKHQPTPDPEGDRVRAEMPNQLRKQLEAIIATDPLNPLTAEDKELLWHFRYESLKHPKAYPKLFSSVKWGQQEIVAKTYQLLARREVWDQSALDVGLTMQLLDCNFSDENVRAIAVQKLESLEDDDVLHYLLQLVQAVKFEPYHDSALARFLLKRGLRNKRIGHFLFWFLRSEIAQSRHYQQRFAVILEAYLRGCGTAMLHDFTQQVQVIEMLQKVTLDIKSLSAEKYDVSSQVISQLKQKLENLQNSQLPESFRVPYDPGLKAGALAIEKCKVMASKKKPLWLEFKCADPTALSNETIGIIFKHGDDLRQDMLILQILRIMESIWETESLDLCLLPYGCISTGDKIGMIEIVKDATTIAKIQQSTVGNTGAFKDEVLNHWLKEKSPTEEKFQAAVERFVYSCAGYCVATFVLGIGDRHNDNIMITETGNLFHIDFGHILGNYKSFLGINKERVPFVLTPDFLFVMGTSGKKTSPHFQKFQDICVKAYLALRHHTNLLIILFSMMLMTGMPQLTSKEDIEYIRDALTVGKNEEDAKKYFLDQIEVCRDKGWTVQFNWFLHLVLGIKQGEKHSAHHHHHH
MSEFLTHPFEPFFDKDSKILILGSFPSIKSRQDGFYYQHPRNRFWPILETLFNAKLENITEQQAFLRKKHIALWDVLQSCKIKNSDDKTISYAKANDLNLILSQTKIQAIFTTGQSAYRFFVKFHPRLEAIALPSTSPANLNFSFEQLLQNYEIIKKFTKLEHHHHHH
MSEGITDIEESQIQTNYDKVVYKFDDMELDENLLRGVFGYGFEEPSAIQQRAIMPIIEGHDVLAQAQSGTGKTGTFSIAALQRIDTSVKAPQALMLAPTRELALQIQKVVMALAFHMDIKVHACIGGTSFVEDAEGLRDAQIVVGTPGRVFDNIQRRRFRTDKIKMFILDEADEMLSSGFKEQIYQIFTLLPPTTQVVLLSATMPNDVLEVTTKFMRNPVRILVKKDELTLEGIKQFYVNVEEEEYKYECLTDLYDSISVTQAVIFCNTRRKVEELTTKLRNDKFTVSAIYSDLPQQERDTIMKEFRSGSSRILISTDLLARGIDVQQVSLVINYDLPANKENYIHRIGRGGRFGRKGVAINFVTNEDVGAMRELEKFYSTQIEELPSDIATLLN
MSEITLGKYLFERLKQVNVNTVFGLPGDFNLSLLDKIYEVEGMRWAGNANELNAAYAADGYARIKGMSCIITTFGVGELSALNGIAGSYAEHVGVLHVVGVPSISAQAKQLLLHHTLGNGDFTVFHRMSANISETTAMITDIATAPAEIDRCIRTTYVTQRPVYLGLPANLVDLNVPAKLLQTPIDMSLKPNDAESEKEVIDTILVLDKDAKNPVILADACCSRHDVKAETKKLIDLTQFPAFVTPMGKGSIDEQHPRYGGVYVGTLSKPEVKEAVESADLILSVGALLSDFNTGSFSYSYKTKNIVEFHSDHMKIRNATFPGVQMKFVLQKLLTTIADAAKGYKPVAVPARTPANAAVPASTPLKQEWMWNQLGNFLQEGDVVIAETGTSAFGINQTTFPNNTYGISQVLWGSIGFTTGATLGAAFAAEEIDPKKRVILFIGDGSLQLTVQEISTMIRWGLKPYLFVLNNDGYTIQKLIHGPKAQYNEIQGWDHLSLLPTFGAKDYETHRVATTGEWDKLTQDKSFNDNSKIRMIEVMLPVFDAPQNLVEQAKLTAATNAKQ
MSEKPLTKTDYLMRLRRCQTIDTLERVIEKNKYELSDNELAVFYSAADHRLAELTMNKLYDKIPSSVWKFIR
MSEKPQQEEQEKPQSRRNSFAVIEFTPEVLDRCLKQVEFYFSEFNFPYDRFLRTTAEKNDGWVPISTIATFNRMKKYRPVDKVIEALRSSEILEVSADGENVKRRVPLDLTAARNARIEQNQRTLAVMNFPHEDVEASQIPELQENLEAFFKKLGEINQVRLRRDHRNKKFNGTVLVEFKTIPECEAFLKSYSNDDESNEILSYEGKKLSVLTKKQFDLQREASKSKNFSGRSRSFNGHKKKNLPKFPKNKKKNGKEESKEDSSAIADDDEEHKE
MSELSQLSPQPLWDIFAKICSIPHPSYHEEALAAHILEWAKEKGIYAERDQVGNILLRKAATAGMENRKPVVLQAHLDMVPQKNNDTVHDFTTDPIQPYVDGEWLKARGTTLGADNGIGMASALAVLADPSVEHGPLEVLLTMTEEAGMDGAFGLQPNWLQGEILINTDSEEEGEIYMGCAGGIDFITRLPLVREVPPAGYQTLKLTIKGLKGGHSGGDIHLGLGNANKLLARFLFEQAEALDIRILDLNGGTLRNAIPREAFATLSLPAANVEQLKTLSQDYLAVLKNELSAVEKNLTVLVEANDSNEHPLTQDSRDRLLGLLNATPNGVIRMSDDVKGVVETSLNLGVVTMEDDHAEIICLIRSLIDSGKDAVVGTLTALGQLAGAKTSPKGGYPGWQPDAHSPVMALVRETYQKQFNKTPNIMVIHAGLECGLFKKPYPDMDMVSIGPTITGPHSPDEQVHIGSVDLYWKLLTELLKAIPPRALEHHHHHH

Soluble on expression in E. coli, not soluble:
MSDSDLKEIEKNAENIKLEPAEDEVNEEDQNEITIPELPEGRVLELRLLSNWGDSHYIGLNSVEIFTSTGERAVIDKIATNVTEYTGSLESLIVQRVHCKDAEKMWCAKTTEEKIVLTLELKETCKLALIRFWNYNASRVHAQIGVRYLEMYLDGVGIFRGELECAFSADSEFTPVMGETVLFTTSDNILELIALHDVCLISLPEEPISNSSIEMLKADHLTPYRPSTCEAKDAPSTPVTIVPPPIFRQTGTAYKHDVKTLHIELLSNWGMDGLIGLTGLELVDEHSQLIDESQYTVTTSDGNSDLSKKLFNGRNLTRDPHDMWLVDFDSKNFTTISITFHDNVALKAISVWNYNASFELSYAGVKAAKIYINGKLIKNVLLRKATGFVYFDYVQDVVLDPNNTERDFVPKGISQSIGGFVFQIRLLSTWGDEFYIGLNGIELYNRKGELMKIREHNLAAFPESVNILPNIKNDLRTSNNLITQPNDTDIARNMWLTALLPNRCARVFFVFDVQTYISKIVIYNYRKTPERGVRHISVTVDDLIIFSGEIPSSTATLTGNLEINLMDI
MSDSTQMEANAAINEIKKRTRKLDQSLQMRFCADQFFIGNHCTKLASGKSIIISQNSKNRICLRFFMAADPLVGYTGRDFGIAFNQIDHISLKDEQQENPAVLICTLNLSSYTKMCKLQTGLKDVVEKPFLYNKSLARNLTFILKPWNDDPDTFVKISYNDEHREYVHSYDYDVAKSLMFKEVQAVWEQSLKEQLQRRHQTGRVYLTSQLSEMTPREWVQFLADQKLSKIVCHNGSIQYARVEDNPHGRKHTAVATNGFDHRGTRVLNSFGKAHASLATQEKSYAKKRKLTEQSLKLIYRNDRSVWLEGSCAKNLKMPKINSEPNMGEFMGWPDMDNAMTHPTSNFENEDVMKSTKQPNDFVSFEQLQAPPPVLQRQNGAIYSTQSVAFTHISGNDGVEDLTEKISHLGEEAYNIDMANALHAFSDNWHYEIHPNTVHNASFEQLHIGDGNSSIGTIGFNPLEPYPQSSFPQSNNWQQAHGDFTFPQVSFPNTQQGSCLPSTPTAALPPTRPVVEKIPPDTQLFTFPPSGSCTTGMDPVVLLVKDIKTLDRKEFLNDSVMAFMLNYIAFMLSSELMKSVHMCNTFLFVNLTRLLPPLCFSKRRPIEPEHIKIVKDNCPRVLRWTRKFDVLAKDYIIIPINEDLHWLVIAVINPSGAIVDMSNEEASRAAPKCYIVFFDPLSGLDPSKKNHMCHCIKIYLAQLYENTKAPGMKFASKNPTIYDEERVVVTRAENTPIQDNFYDCGLYVLHFIEGLFCYPNRPVNVNDFPNFDWSKFFPEANKMCDLMRDKVYNLILQQADKPARSRLAKFERENKCGLSREGALRKARRHSAVNERRTKRHRDYYARHYSLSPPHRNVMNDDPTFMNPRGLAEMPITRLVRRLRIPEDNFPIAY
MSDWFQLDKEYMMSTYCRTKIAIERGEGCKLYDVDGKEYLDLFSGVGVNVLGYNHPKIVQTTMDQVTKSLHLPFHFLNPVAIEYAKKLVDCSLKNGKVFFTNSGTEATETTLKLIDKYRAITNEEREGIVVLKNSFHGRTLGALHFTRQESVYQNFPTTSIPVYEVERENIEQLEETIINENPIAILLEPVLGSGGIYPLSREYLHGVQNLCDKYNVILIVDEVQSGMGRTGKLFAYQNFNITPHIIQIGKGAGGGIPLGGIIVGEKLCDVFAPGDHGTTFAHSSMGTALGLTVLNTLLDDGLMQEAYEMSLYLNDKLQEIQKENSYYIEEVRHAGMMFGISLNDTNENVKKLQVELMEKGILVDVTQGNIIRLLPPYIITKEEIDTFITQFIFCIDKVAAVVSA
MSEAPATEHGQCLCGAVGFTATLGAREFGVCHCSMCRRWSGGAFMAVECTDIAFENEQRLGVYSSSKWGERCFCKNCGSTLVWRSKDGKHFAVSLQAFDKPSSFTFVQQIFTDEKPSSYSFAQTTQNMTGPEFIAMITSAEH
MSEDHHDEEQFDSAESGAAATFPKQCSALRKNEHVMIRGRPCKIVEMSTSKTGKHGHAKVHMVAIDIFTTKKLEDICPSTHNMDVPVVKRREYILMSIEDGFCSLMDPESCELKDDLKMPEGDLGNTIREALEKDEGSVLVQVVAACGEEAILGYKISTKE
MSEDIGVTRFREYLRVNTEQPKPDYEACRDFLFKYADELGIERRSVETAPGTYFVIMTIPGSKPDLPSIMLYSHTDVVPTFREYWTHDPYSAFKDEDGNIFARGAQDMKCVGVQYMEALRNWFAKGVKQWTRTIHIVWGPDEEIGHINGMKGFAVTEEFKKLNIDFALDEGIATEDDVYKIFYAERIPWWVKVTLPGHPGHGSKFIEKTAIEKLHKLIASVDEFRNEQKSLLAEHPEWTVGDVTTSNITIINGGVQVNVVPEKFEAYIDIRVTPLQDLDAVLARVDQWAKEAGEGVTYEFMQFSNFKLISPNTREDPFWAAIDDALQKEGCKYKKEIFIGATDSRFVRAQGIRAIGFSPIINTPSLLHDHNEFLNEKTFLRGVEIYETLINKLANVN
MSEEKPLKVSYSKQFVRDLTDLAKRSPNVLIGSKYITAIHCLLNRLPLPENYQDHALVGEWKGYRDCHIQGDLVLIYQYVIQDEFDELKFSRLNIHSQTALK
MSEELPNITTSEKKSFLQSLFSCLFQSEPKNREDLVEVIRDSLENELIDNDTKEMMEGVMEISELRVRDIMIPRPQIVYIDANLPLEACVDLIIESAHSRFPVILDDGKDNIQGMLLAKDLLKYLRSDSAPFDMQKMLRPAVIVPESKRVDRMLKEFRSERFHMAIVVDEFGAVSGLVTIEDILEQIVGDIEDEFDEEEIEPIRQLSRHTYAVSALTDIEKFNAVFATDFVDEEVDTIGGLVMQAFSHLPQRGEQVNLHGIDFKVTSADSRRLIQLRVTVSDEQLEQMERITDLEE
MSEIVIRHAETRDYEAIRQIHAQPEVYCNTLQVPHPSDHMWQERLADRPGIKQLVACIDGDVVGHLTIDVQQRPRRSHVADFGICVDSRWKNRGVASALMREMIEMCDNWLRVDRIELTVFVDNAPAIKVYKKFGFEIEGTGKKYALRNGEYVDAYYMARVK
